Ends that are not written are not given here.
Key:
[1] = target: T1, kappa opioid receptor (the kOR), mouse, with C-terminal GFP (the kOR-EGFP) (mouse), P33534
T1 chain: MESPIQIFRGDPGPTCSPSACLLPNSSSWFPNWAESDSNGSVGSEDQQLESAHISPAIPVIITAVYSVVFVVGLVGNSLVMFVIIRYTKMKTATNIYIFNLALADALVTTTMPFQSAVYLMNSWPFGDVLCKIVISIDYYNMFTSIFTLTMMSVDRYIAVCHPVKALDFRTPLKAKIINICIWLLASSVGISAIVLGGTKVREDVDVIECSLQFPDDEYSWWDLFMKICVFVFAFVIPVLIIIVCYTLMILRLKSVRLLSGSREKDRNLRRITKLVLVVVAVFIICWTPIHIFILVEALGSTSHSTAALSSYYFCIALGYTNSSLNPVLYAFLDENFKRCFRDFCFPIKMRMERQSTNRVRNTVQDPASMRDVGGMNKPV

[2] = target: T1, kappa opioid receptor (the kOR), mouse, …; test: cell-based or functional assay

GLPVCGETCVGGTCNTPGCKCSWPVCTRN (not fully specified (bridges); ends and bridges not checked) [[T20K]-kalata B1] showed a Ki [1] of 2.7 µM, a cAMP assay EC50 (HEK293 cells stably expressing the kOR) [2] of 17 µM and a leftward shift in the cAMP potency of the orthosteric ligand U50,488 [2] of 9 fold.

— patent publication US20240269230A1
